The results in this text go back to patent US20030199671A1 (published 2003).

Experiment [1] addresses T1, human IgG1 (human, UniProt P01857-1 1-330 = IgG part).
T1 construct: Calbiochem; human plasma IgG1 in anisotropy studies, myeloma-derived (cat. 400120) in batch/column studies; also called hIgG1
The experiment is described as follows: fluorescence anisotropy; pH 7.4 PBS (second value, unlabelled row). As to the method:
(§1) All measurements were performed in 384 well microplates with 20 nM fluorescein-labeled peptide and various concentrations of the IgG isoform in a volume of between 10 and 20 μl using a Tecan Polarion fluorescence polarization plate reader. All binding buffers included 0.01% (v/v) Tween 20 to prevent peptide adsorption to the microplate. The binding mixture was equilibrated for 10 minutes in the microplate at 30° C. prior to performing the measurement.

In experiment [2] the target is T2, human IgG2 (human, UniProt P01859-1 1-326 = IgG part).
T2 construct: Calbiochem; plasma IgG2 in anisotropy studies, myeloma-derived (cat. 400122) in batch/column studies; also called hIgG2
Description: fluorescence anisotropy; pH 7.4, 0.01 M Tris-HCl. As to the method: as §1

Experiment [3] deals with T1, human IgG1. Description: fluorescence anisotropy; pH 7.4, 0.01 M Tris-HCl. Here is the method: as §1
Experiment [4] concerns the target T3, human IgG4 (human, UniProt P01861-1 1-327 = IgG part).
T3 construct: Calbiochem; plasma IgG4 in anisotropy studies, myeloma-derived (cat. 400126) in batch/column studies; also called hIgG4
The experiment is described as follows: fluorescence anisotropy; pH 7.4, 0.01 M Tris-HCl. As to the method:
as §1

For experiment [5], the target named is T1, human IgG1. The experiment is described as follows: fluorescence anisotropy; pH 7.4 PBS, 15% ethylene glycol. As to the method: as §1
Experiment [6] deals with T1, human IgG1. Description: fluorescence anisotropy; pH 5.7, 0.05 M NaCl. Here is the method: as §1
Experiment [7] concerns the target T1, human IgG1. Description: fluorescence anisotropy; pH 5.7, 15% ethylene glycol. As to the method: as §1
Experiment [8] addresses T2, human IgG2. Description: fluorescence anisotropy; pH 5.7, 0.01 M Tris-acetate. Here is the method:
as §1

The target of experiment [9] is T1, human IgG1. Described as above. As to the method:
as §1

Experiment [10] concerns the target T3, human IgG4. The description is as above. As to the method: as §1
The target of experiment [11] is T1, human IgG1. Description: fluorescence anisotropy; pH 5.7, 0.1 M NaCl. Here is the method:
as §1

The target in experiment [12] is T2, human IgG2. Description: batch binding, immobilised ligand. Here is the method:
(§2) IgG targets were diluted into 10 mM phosphate buffer containing 150 mM NaCl and 0.01% Tween 20, pH 7.2 (PBST) or 50 mM Tris buffer containing, 150 mM NaCl and 0.01% Tween-20, pH 7.5 (TBST). Batch (static) binding and elution studies were conducted in a 96-well assay filterplate (Millipore MultiScreen-HV, with 0.45 μm Durapore membrane, product no. MAHVN4510). The target was allowed to incubate with the resin for 1-1.5 hours with shaking at room temperature. Unbound target was collected by centrifugation of samples from the assay plate directly into a low-UV absorbing 96-well collection plate (Costar, product no. 3635 or Greiner, product no. 655801). The unbound target was then quantitated by reading the absorbance at 280 nm (normalized to 1 cm pathlength, 1.4 mg/ml A280 extinction coefficient) of the collection plate on a microplate spectrophotometer (Molecular Devices Corp., SPECTRAmax PLUS) against a buffer blank.
(§3) The percentage bound target was determined by subtracting the mass determined as unbound from the corresponding condition's control values (control non-filtered added directly to the collection plate and/or the negative control). The assay plate was washed (3×) with 200 μl of binding buffer by vacuum filtration followed by addition of 100 μl of various elution conditions (e.g.: 0.1 M sodium bicarbonate buffer, pH 8.5 and/or 0.1 M sodium citrate buffer, pH 4.0). After a 30-60 minute incubation with shaking at room temperature, the eluted target was collected by centrifugation of the assay plate into another collection plate and quantitated in a similar manner. Percent elution of total load was then determined to characterize elution recovery efficiency under various conditions.

A further experiment concerns the target T4, human IgG3 (human, UniProt P01860-1 1-377).
T4 construct: Calbiochem; plasma IgG3 in anisotropy studies, myeloma-derived (cat. 400124) in batch/column studies; also called hIgG3
Description: batch binding, immobilised ligand. Here is the method: as §2, §3

Experiment [13] addresses T1, human IgG1. The experiment is described as follows: batch binding, immobilised ligand. Here is the method:
as §2, §3

Experiment [14] has as its target T3, human IgG4. Description: batch binding, immobilised ligand. As to the method: as §2, §3
In experiment [15] the target is T2, human IgG2. Description: mini-column chromatography, immobilised ligand. As to the method:
(§4) Thus, 250 μg of target (hIgG1, hIgG2, hIgG3, hIgG4, goat IgG and bovine IgG) at 0.250 mg/ml in PBST, pH 7.2 or TBST, pH 7.3 was loaded onto a 350 μl column (3×50 mm) run at 0.200 ml/min. flowrate (170 cm/hr). Flowthrough, elution and cleaning fractions were collected and assayed for total protein recovery by size-exclusion HPLC.

Experiment [16] concerns the target T1, human IgG1. The experiment is described as follows: mini-column chromatography, immobilised ligand. As to the method:
as §4

Experiment [17] has as its target T3, human IgG4. Description: mini-column chromatography, immobilised ligand. As to the method: as §4
Experiment [18] concerns the target T1, human IgG1. The experiment is described as follows: fluorescence anisotropy; pH 5.7, 0.15 M NaCl. As to the method:
as §1

Positions of bridges follow the written chain, without caps; N, C: chain ends.

T3 sequence (P01861 other isoform, or with tags, fused parts or gaps): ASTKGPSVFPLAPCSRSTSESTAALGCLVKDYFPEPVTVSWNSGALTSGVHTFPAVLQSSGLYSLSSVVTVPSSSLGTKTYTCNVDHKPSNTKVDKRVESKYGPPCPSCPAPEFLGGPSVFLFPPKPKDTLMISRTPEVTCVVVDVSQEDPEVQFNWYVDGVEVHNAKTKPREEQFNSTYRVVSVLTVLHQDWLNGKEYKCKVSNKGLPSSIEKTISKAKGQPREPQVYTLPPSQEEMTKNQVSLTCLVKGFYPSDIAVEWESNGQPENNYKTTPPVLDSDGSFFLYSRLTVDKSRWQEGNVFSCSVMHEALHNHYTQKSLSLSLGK
T1 sequence (P01857 other isoform, or with tags, fused parts or gaps): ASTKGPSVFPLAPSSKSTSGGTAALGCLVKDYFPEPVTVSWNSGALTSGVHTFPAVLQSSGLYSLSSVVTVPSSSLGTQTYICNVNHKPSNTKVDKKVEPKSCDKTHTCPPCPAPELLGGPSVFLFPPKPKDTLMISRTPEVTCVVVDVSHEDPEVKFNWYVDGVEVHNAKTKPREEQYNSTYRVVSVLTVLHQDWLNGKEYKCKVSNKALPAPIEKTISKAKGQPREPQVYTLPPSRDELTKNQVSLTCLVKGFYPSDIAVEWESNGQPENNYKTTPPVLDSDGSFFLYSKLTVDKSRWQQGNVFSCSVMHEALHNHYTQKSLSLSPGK
T2 sequence (P01859 other isoform, or with tags, fused parts or gaps): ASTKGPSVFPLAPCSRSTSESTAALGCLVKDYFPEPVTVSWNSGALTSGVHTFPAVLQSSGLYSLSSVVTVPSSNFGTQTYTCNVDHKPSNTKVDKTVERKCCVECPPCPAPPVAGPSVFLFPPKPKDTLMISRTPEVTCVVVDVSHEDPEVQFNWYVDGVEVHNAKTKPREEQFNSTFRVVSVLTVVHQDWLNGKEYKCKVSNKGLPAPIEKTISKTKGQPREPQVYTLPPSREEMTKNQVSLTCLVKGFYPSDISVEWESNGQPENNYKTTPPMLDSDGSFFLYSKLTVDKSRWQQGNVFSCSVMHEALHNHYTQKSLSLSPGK
T4 sequence (P01860 other isoform, or with tags, fused parts or gaps): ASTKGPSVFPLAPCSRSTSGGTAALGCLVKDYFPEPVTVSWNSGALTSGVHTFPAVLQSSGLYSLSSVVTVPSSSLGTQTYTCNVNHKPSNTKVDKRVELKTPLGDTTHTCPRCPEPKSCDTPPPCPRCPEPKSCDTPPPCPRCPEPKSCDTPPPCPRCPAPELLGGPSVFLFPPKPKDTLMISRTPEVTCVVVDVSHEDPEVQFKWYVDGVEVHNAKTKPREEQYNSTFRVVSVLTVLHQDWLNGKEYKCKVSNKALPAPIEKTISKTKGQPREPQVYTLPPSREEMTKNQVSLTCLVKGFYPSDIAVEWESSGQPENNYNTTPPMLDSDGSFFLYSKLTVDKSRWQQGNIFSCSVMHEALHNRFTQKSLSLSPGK

On to Ac-GDDHMCVYTTWGELIWCDNHEPGPEGGGK-NH2 (disulfide 6-17 (inferred), Synthetic disulfide-cyclised peptide) [DX249], for which the Kd in the experiment with human IgG1 [1] was 2900 nM; with human IgG2 [2] it was 1800 nM; with human IgG1 [3] it was 400 nM; in the experiment with human IgG4 [4], 1900 nM; with human IgG1 [5] it was 3600 nM; in the experiment with human IgG1 [6] it was 300 nM. For the same molecule, the Kd in the experiment with human IgG1 [7] stood at 80 nM; with human IgG2 [8], 68 nM; with human IgG1 [9], 74 nM; in the experiment with human IgG4 [10] it was 300 nM; in the experiment with human IgG1 [11], 970 nM; with human IgG1 [18], 840 nM. For the same molecule, the “Bound (% of Total Load)” value in the experiment with human IgG2 [12] was 78%; with human IgG3 it was 0%; with human IgG1 [13] it was 88%; with human IgG4 [14], 61%. In addition, the “bdg % (of Total Load)” value with human IgG2 [12] amounted to 92%; with human IgG3 it was 3%; in the experiment with human IgG1 [13], 91%; in the experiment with human IgG4 [14] it was 82%. Besides, the binding efficiency in the experiment with human IgG2 [15], with human IgG1 [16] and with human IgG4 [17] was greater than 90% in each case.
